From patent US20060259987A1 (UNIVERSITY OF UTAH RESEARCH FOUNDATION, published 2006)

Experiments:
human thrombin [1] = biological target: T1, human thrombin (human, UniProt P00734 328-622); assay: thrombin inhibition rate in the presence of heparin (HAH)
human thrombin [2] = biological target: T1, human thrombin; assay: thrombin inhibition rate in the absence of heparin
[3] = biological target: T2, human neutrophil elastase (human, UniProt P08246 30-247, limits assumed); assay: cell-based or functional assay
T2 sequence (looked up): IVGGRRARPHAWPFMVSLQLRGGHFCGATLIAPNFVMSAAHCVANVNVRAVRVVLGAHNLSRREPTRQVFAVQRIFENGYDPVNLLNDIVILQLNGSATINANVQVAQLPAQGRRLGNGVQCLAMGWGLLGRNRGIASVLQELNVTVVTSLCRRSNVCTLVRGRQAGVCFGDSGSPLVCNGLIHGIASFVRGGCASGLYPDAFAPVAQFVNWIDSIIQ

human thrombin [4] = biological target: T1, human thrombin; assay: cell-based or functional assay
[5] = biological target: T3, human neutrophil cathepsin G (human, UniProt P08311 21-244); assay: cell-based or functional assay
T3 sequence (looked up): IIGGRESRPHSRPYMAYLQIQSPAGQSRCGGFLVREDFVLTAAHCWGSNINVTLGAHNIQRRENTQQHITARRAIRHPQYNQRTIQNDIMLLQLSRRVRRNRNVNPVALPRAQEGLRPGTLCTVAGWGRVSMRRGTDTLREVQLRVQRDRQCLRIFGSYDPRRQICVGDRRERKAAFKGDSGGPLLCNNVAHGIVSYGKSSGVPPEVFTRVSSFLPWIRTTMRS

human factor Xa = human factor Xa (human, UniProt P00742 41-179; P00742 235-488, limits assumed); assay: cell-based or functional assay
Sequence of human factor Xa (P00742 41-179 limits assumed, chain 1 of 2): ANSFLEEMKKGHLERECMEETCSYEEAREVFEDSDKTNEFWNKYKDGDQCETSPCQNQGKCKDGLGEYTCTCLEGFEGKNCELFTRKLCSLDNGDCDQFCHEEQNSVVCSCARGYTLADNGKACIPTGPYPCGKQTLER
Sequence of human factor Xa (P00742 235-488 limits assumed, chain 2 of 2): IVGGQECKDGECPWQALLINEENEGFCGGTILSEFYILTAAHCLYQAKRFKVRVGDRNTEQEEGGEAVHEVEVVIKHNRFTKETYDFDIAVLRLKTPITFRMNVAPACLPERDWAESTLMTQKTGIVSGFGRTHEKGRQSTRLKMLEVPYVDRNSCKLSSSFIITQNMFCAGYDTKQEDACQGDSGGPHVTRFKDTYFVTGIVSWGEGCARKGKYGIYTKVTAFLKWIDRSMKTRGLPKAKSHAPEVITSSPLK

factor Xa [6] = biological target: T4, factor Xa (human, UniProt P00742 41-179; P00742 235-488, limits assumed); assay: cell-based or functional assay
T4 sequence (P00742 41-179 limits assumed, form in doubt, chain 1 of 2): as the sequence (P00742 41-179 limits assumed, chain 1 of 2) above
T4 sequence (P00742 235-488 limits assumed, form in doubt, chain 2 of 2): as the sequence (P00742 235-488 limits assumed, chain 2 of 2) above

thrombin [7] = biological target: T5, thrombin (human, UniProt P00734 328-622); assay: cell-based or functional assay
factor Xa [8] = biological target: T4, factor Xa; assay: heparin cofactor assay, HCA expt #2; ATIII titrated on 10 nM fXa + 50 ug/ml UFH, chromogenic readout
Description: (§1) After 3 minutes, the reactions were quenched with polybrene and chromogenic substrate S2238 (thrombin) or S2765 (fXa), and the initial rate of chromophore production (405 nm) recorded to obtain a measurement residual, uninhibited thrombin or factor Xa. IC50s were determined from plots of ATIII concentration vs. percent residual target enzyme activity.

thrombin [9] = biological target: T5, thrombin; assay: heparin cofactor assay, HCA expt #2; ATIII titrated on 10 nM thrombin + 50 ug/ml UFH, chromogenic readout
Description: as §1

thrombin [10] = biological target: T5, thrombin; assay: heparin cofactor assay, HCA expt #4; ATIII titrated on 10 nM thrombin + 50 ug/ml UFH, chromogenic readout
Description: as §1

factor Xa [11] = biological target: T4, factor Xa; assay: heparin cofactor assay, HCA expt #4; ATIII titrated on 10 nM fXa + 50 ug/ml UFH, chromogenic readout
Description: as §1

| Binder | Kapp, thrombin HAH (human thrombin [1]) | Kapp, thrombin progressive (human thrombin [2]) | rsd IIa, HNE (CA #51, stg 1 conc 200) [3] | rsd Xa, HNE (CA #51, stg 1 conc 200) [3] | IC50 IIa/UFH (HCA #5) (human thrombin [4]) | rsd IIa, no add (CA #51, stg 1 conc 200) (human thrombin [4]) | rsd IIa, catG (CA #51, stg 1 conc 200) [5] | rsd Xa, catG (CA #51, stg 1 conc 200) [5] | IC50 fXa/UFH (HCA #5) (human factor Xa) | rsd Xa, no add (CA #51, stg 1 conc 200) (human factor Xa) | also measured |
| --- | --- | --- | --- | --- | --- | --- | --- | --- | --- | --- | --- |
| LEAQ.502 (other, also called DES.LEAQ.502) SPVDICTAKPRDIPMNPMCIYRSPEKKATEDEGSEQKIPEATNRRVWELSKANSRFATTFYQHLADSKNDNDNIFLSPLSISTAFAMTKLGACNDTLQQLMEVFKFDTISEKTSDQIHFFFAKLNCRLYRKANKASKLVSANRLFGDKSLTFNETYQDISELVYGAKLQPLDFKENAEQSRAAINKWVSNKTEGRITDVIPSEAINELTVLVLVNTIYFKGLWKSKFSPENTRKELFYKADGESCSASMMYQEGKFRYRRVAEGTQVLELPFKGDDITMVLILPKPEKSLAKVEKELTPEVLQEWLDELEEMMLVVHMPRFRIEDGFSLKEQLQDMGLVDLFSPEKSKLPGIVAEGRDDLYVSDAFHKAFLEVNEEGSEAAASTALSAQGRSLNPNRVTFKANRPFLVFIREVPLNTIIFMGRVANPCVK | 1.1e+07 M⁻¹ s⁻¹ | 3000 M⁻¹ s⁻¹ | 1% | 1% | 16 nM | 1% | 2% | -1% | 12 nM | 1% | IC50 IIa/UFH (HCA #6) (human thrombin [4]): 18 nM; IC50 fXa/UFH (HCA #6) (human factor Xa): 19 nM |
| 13C.444 (other, N-linked glycans added by Drosophila S2 cells; not carried by the letters, Made in Drosophila S2 cells (DES) on the S137A background; N-terminus printed as SPVDI---) SPVDICTAKPRDIPMNPMCIYRSPEKKATEDEGSEQKIPEATNRRVWELSKANSRFATTFYQHLADSKNDNDNIFLSPLSISTAFAMTKLGACNDTLQQLMEVFKFDTISEKTSDQIHFFFAKLNCRLYRKANKASKLVSANRLFGDKSLTFNETYQDISELVYGAKLQPLDFKENAEQSRAAINKWVSNKTEGRITDVIPSEAINELTVLVLVNTIYFKGLWKSKFSPENTRKELFYKADGESCSASMMYQEGKFRYRRVAEGTQVLELPFKGDDITMVLILPKPEKSLAKVEKELTPEVLQEWLDELEEMMLVVHMPRFRIEDGFSLKEQLQDMGLVDLFSPEKSKLPGIVAEGRDDLYVSDAFHKAFLEVNEEGSEAAASTELEVAPRSLNPNRVTFKANRPFLVFIREVPLNTIIFMGRVANPCVK | – | – | – | – | – | – | – | – | – | – | rsd. Xa catG; CA expt #7; stg1 conc 200 (factor Xa [6]): 3 % of activity without ATIII; rsd. Xa hne; CA expt #7; stg1 conc 200 (factor Xa [6]): 3 % of activity without ATIII; rsd. Xa no add; CA expt #7; stg1 conc 200 (factor Xa [6]): 3 % of activity without ATIII; rsd. IIa catG; CA expt #7; stg1 conc 200 (thrombin [7]): 5 % of activity without ATIII; rsd. IIa hne; CA expt #7; stg1 conc 200 (thrombin [7]): 14 % of activity without ATIII; rsd. IIa no add; CA expt #7; stg1 conc 200 (thrombin [7]): 6 % of activity without ATIII; IC50 (factor Xa [8]): 40 nM; IC50 (thrombin [9]): > 1000 nM |
| LEAQ.508 (other, also called DES.LEAQ.508) SPVDICTAKPRDIPMNPMCIYRSPEKKATEDEGSEQKIPEATNRRVWELSKANSRFATTFYQHLADSKNDNDNIFLSPLSISTAFAMTKLGACNDTLQQLMEVFKFDTISEKTSDQIHFFFAKLNCRLYRKANKASKLVSANRLFGDKSLTFNETYQDISELVYGAKLQPLDFKENAEQSRAAINKWVSNKTEGRITDVIPSEAINELTVLVLVNTIYFKGLWKSKFSPENTRKELFYKADGESCSASMMYQEGKFRYRRVAEGTQVLELPFKGDDITMVLILPKPEKSLAKVEKELTPEVLQEWLDELEEMMLVVHMPRFRIEDGFSLKEQLQDMGLVDLFSPEKSKLPGIVAEGRDDLYVSDAFHKAFLEVNEEGSEAAASTALKAQGRSLNPNRVTFKANRPFLVFIREVPLNTIIFMGRVANPCVK | 1.1e+07 M⁻¹ s⁻¹ | 4100 M⁻¹ s⁻¹ | 1% | -3% | 18 nM | 1% | 1% | -2% | 19 nM | -1% | – |
| LEAQ.504 (other, also called DES.LEAQ.504) SPVDICTAKPRDIPMNPMCIYRSPEKKATEDEGSEQKIPEATNRRVWELSKANSRFATTFYQHLADSKNDNDNIFLSPLSISTAFAMTKLGACNDTLQQLMEVFKFDTISEKTSDQIHFFFAKLNCRLYRKANKASKLVSANRLFGDKSLTFNETYQDISELVYGAKLQPLDFKENAEQSRAAINKWVSNKTEGRITDVIPSEAINELTVLVLVNTIYFKGLWKSKFSPENTRKELFYKADGESCSASMMYQEGKFRYRRVAEGTQVLELPFKGDDITMVLILPKPEKSLAKVEKELTPEVLQEWLDELEEMMLVVHMPRFRIEDGFSLKEQLQDMGLVDLFSPEKSKLPGIVAEGRDDLYVSDAFHKAFLEVNEEGSEAAASTALNAQGRSLNPNRVTFKANRPFLVFIREVPLNTIIFMGRVANPCVK | 6.1e+06 M⁻¹ s⁻¹ | 3300 M⁻¹ s⁻¹ | 1% | 1% | 17 nM | 1% | 1% | -1% | 14 nM | 0% | – |
| LEAQ.503 (other, also called DES.LEAQ.503) SPVDICTAKPRDIPMNPMCIYRSPEKKATEDEGSEQKIPEATNRRVWELSKANSRFATTFYQHLADSKNDNDNIFLSPLSISTAFAMTKLGACNDTLQQLMEVFKFDTISEKTSDQIHFFFAKLNCRLYRKANKASKLVSANRLFGDKSLTFNETYQDISELVYGAKLQPLDFKENAEQSRAAINKWVSNKTEGRITDVIPSEAINELTVLVLVNTIYFKGLWKSKFSPENTRKELFYKADGESCSASMMYQEGKFRYRRVAEGTQVLELPFKGDDITMVLILPKPEKSLAKVEKELTPEVLQEWLDELEEMMLVVHMPRFRIEDGFSLKEQLQDMGLVDLFSPEKSKLPGIVAEGRDDLYVSDAFHKAFLEVNEEGSEAAASTALTAQGRSLNPNRVTFKANRPFLVFIREVPLNTIIFMGRVANPCVK | 1.6e+07 M⁻¹ s⁻¹ | 3700 M⁻¹ s⁻¹ | 1% | 0% | 13 nM | 0% | 1% | -2% | 11 nM | 1% | – |
| 7EVEA.455 (other, N-linked glycans added by Drosophila S2 cells; not carried by the letters, Made in Drosophila S2 cells (DES) on the S137A background; N-terminus printed as SPVDI---) SPVDICTAKPRDIPMNPMCIYRSPEKKATEDEGSEQKIPEATNRRVWELSKANSRFATTFYQHLADSKNDNDNIFLSPLSISTAFAMTKLGACNDTLQQLMEVFKFDTISEKTSDQIHFFFAKLNCRLYRKANKASKLVSANRLFGDKSLTFNETYQDISELVYGAKLQPLDFKENAEQSRAAINKWVSNKTEGRITDVIPSEAINELTVLVLVNTIYFKGLWKSKFSPENTRKELFYKADGESCSASMMYQEGKFRYRRVAEGTQVLELPFKGDDITMVLILPKPEKSLAKVEKELTPEVLQEWLDELEEMMLVVHMPRFRIEDGFSLKEQLQDMGLVDLFSPEKSKLPGIVAEGRDDLYVSDAFHKAFLEVNEEGSEAAASTEVEVAGRSLNPNRVTFKANRPFLVFIREVPLNTIIFMGRVANPCVK | – | – | – | – | – | – | – | – | – | – | IC50 (thrombin [10]): > 1000 nM; IC50 (factor Xa [11]): 110 nM |
| LEAQ.506 (other, also called DES.LEAQ.506) SPVDICTAKPRDIPMNPMCIYRSPEKKATEDEGSEQKIPEATNRRVWELSKANSRFATTFYQHLADSKNDNDNIFLSPLSISTAFAMTKLGACNDTLQQLMEVFKFDTISEKTSDQIHFFFAKLNCRLYRKANKASKLVSANRLFGDKSLTFNETYQDISELVYGAKLQPLDFKENAEQSRAAINKWVSNKTEGRITDVIPSEAINELTVLVLVNTIYFKGLWKSKFSPENTRKELFYKADGESCSASMMYQEGKFRYRRVAEGTQVLELPFKGDDITMVLILPKPEKSLAKVEKELTPEVLQEWLDELEEMMLVVHMPRFRIEDGFSLKEQLQDMGLVDLFSPEKSKLPGIVAEGRDDLYVSDAFHKAFLEVNEEGSEAAASTALHAQGRSLNPNRVTFKANRPFLVFIREVPLNTIIFMGRVANPCVK | 1.1e+07 M⁻¹ s⁻¹ | 4100 M⁻¹ s⁻¹ | – | – | 9 nM | – | – | – | 13 nM | – | – |
